# B1: N6 (CD4-binding site broadly neutralizing antibody) (antibody, V domains shown)
# VH: RAHLVQSGTAMKKPGASVRVSCQTSGYTFTAHILFWFRQAPGRGLEWVGWIKPQYGAVNFGGGFRDRVTLTRDVYREIAYMDIRGLKPDDTAVYYCARDRSYGDSSWALDAWGQGTTVVVSA
# VL: YIHVTQSPSSLSVSIGDRVTINCQTSQGVGSDLHWYQHKPGRAPKLLIHHTSSVEDGVPSRFSGSGFHTSFNLTISDLQADDIATYYCQVLQFFGRGSRLHIK
# Molecular target: soluble monomeric 1059 gp120 (HIV-1 clone 1059_09.A4.1460 (clade B …, strain))
# Assay: ELISA
binder,measurement,value
B1,binding result,binds

# From article PMC10515946 (bioRxiv, 2023)
